Laboratory results: article PMC3386906 (2012)

T1: ChemR23 (Mus musculus, UniProt P97468)
T1 chain: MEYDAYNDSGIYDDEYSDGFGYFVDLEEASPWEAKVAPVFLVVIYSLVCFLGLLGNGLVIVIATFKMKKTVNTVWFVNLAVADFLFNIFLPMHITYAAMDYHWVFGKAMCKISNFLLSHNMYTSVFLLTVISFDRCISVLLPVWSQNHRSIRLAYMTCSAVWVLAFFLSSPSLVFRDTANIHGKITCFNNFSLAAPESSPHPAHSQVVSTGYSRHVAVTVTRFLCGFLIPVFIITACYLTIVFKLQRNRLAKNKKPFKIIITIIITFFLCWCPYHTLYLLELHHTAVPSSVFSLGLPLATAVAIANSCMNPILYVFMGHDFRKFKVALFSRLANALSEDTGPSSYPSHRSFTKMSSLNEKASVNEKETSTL

T2: ChemR23 (Homo sapiens, UniProt Q99788)
T2 chain: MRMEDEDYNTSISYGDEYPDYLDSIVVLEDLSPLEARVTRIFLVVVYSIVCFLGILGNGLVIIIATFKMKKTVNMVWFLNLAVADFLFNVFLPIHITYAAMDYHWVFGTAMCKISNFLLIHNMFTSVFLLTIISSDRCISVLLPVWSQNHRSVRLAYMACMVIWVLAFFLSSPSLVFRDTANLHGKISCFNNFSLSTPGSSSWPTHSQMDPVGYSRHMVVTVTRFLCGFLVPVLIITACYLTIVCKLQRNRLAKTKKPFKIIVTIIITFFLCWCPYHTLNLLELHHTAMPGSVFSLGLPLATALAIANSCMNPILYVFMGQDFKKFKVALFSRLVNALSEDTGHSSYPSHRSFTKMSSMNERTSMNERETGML


Columns and labels:
ChemR23 [1] = molecular target: T1, ChemR23; assay: radioligand saturation binding (125I-chemerin, peritoneal macrophages)
ChemR23 [2] = molecular target: T1, ChemR23; assay: radioligand saturation binding (CHO-K1 cells)
ChemR23 [3] = molecular target: T2, ChemR23; assay: radioligand

| Kd (ChemR23 [1]) | Kd (ChemR23 [2]) | Kd (ChemR23 [3]) | Binder |
| --- | --- | --- | --- |
| ~1.2 nM | 1.1 nM | – | chemerin (protein, 125I-labelled chemerin) ELTEAQRRGLQVALEEFHKHPPVQWAFQETSVESAVDTPFPAGIFVRLEFKLQQTSCRKRDWKKPECKVRPNGRKRKCLACIKLGSEDKVLGRLVHCPIETQVLREAEEHQETQCLRVQRAGEDPHSFYFPGQFAFS |
| – | – | 0.9 nM | chemerin (protein) ELTEAQRRGLQVALEEFHKHPPVQWAFQETSVESAVDTPFPAGIFVRLEFKLQQTSCRKRDWKKPECKVRPNGRKRKCLACIKLGSEDKVLGRLVHCPIETQVLREAEEHQETQCLRVQRAGEDPHSFYFPGQFAFS |
